Measurements from PMC10503415.

Assays:
[1] = molecular target: full-length wild-type DhmeA from pnEA/3CH-dhmeA, His6 tag removed with 3C protease (Haloferax mediterranei); test: dynamic light scattering; wild-type DhmeA 1 mg/mL in 1 M NaCl, 10 mM Tris pH 8.0, 0.5 mM TCEP; Delsa Max Core
[2] = molecular target: full-length wild-type DhmeA from pnEA/3CH-dhmeA, His6 tag removed with 3C protease (Haloferax mediterranei); test: cryo-EM structure; full-length DhmeA 0.035 mg/mL on Quantifoil grids; data collected at 0° and 44° stage tilt on a Titan Krios; 7-8 Å
[3] = molecular target: DhmeA^ΔGG (Haloferax mediterranei); test: crystal structure; DhmeA^ΔGG 12-14 mg/mL; sitting drop at 10°C; 0.1 M MES/imidazole pH 6.5, 0.1 M amino acids, 10% PEG 4,000, 20% glycerol; 3.3 Å

Row | stoichiometry N [1] | stoichiometry N [2] | stoichiometry N [3] | Substance
1 | 4 | 6 |  | full-length wild-type DhmeA from pnEA/3CH-dhmeA, His6 tag removed with 3C protease (enzyme)
2 |  |  | 20 | DhmeA^ΔGG (enzyme)
